Assay results published in US6835807B1, “Drug complex and drug delivery system” (Daiichi Pharmaceuticals Co., Ltd., priority 1998, dated 2004).
Marks after values point to notes of the source that are not given here.

How the values were obtained:
[1] = Release of the drug compound from the drug complex in buffer (Example 2); assay type: physicochemical; settings: for released amount of the drug (DX-8951), percentage of the drug in the drug complex used: 37° C., 378 μg/ml, after 20 hours
Procedure: (§1) The drug complex obtained in Example 1 was dissolved in a Meth A (murine fibrosarcoma Meth A) homogenate or a buffer at 37° C. (378 μg/ml). After 20 hours, released DX-8951 was determined. The compound wherein the spacer and DX-8951 were bound to each other without p-aminobenzyloxycarbonyl group was prepared and used as a comparative compound. The released amount of the drug is expressed in percentage of the released amount of the drug to the amount of the drug in the drug complex used.

[2] = Release of the drug compound from the drug complex in mouse plasma (Example 2); assay type: in vitro ADME; settings: 37° C., 378 μg/ml, after 20 hours
[3] = tested on: Meth A cells (murine fibrosarcoma Meth A); experiment: Antineoplastic activity of the drug complex of Example 1 (Example 4); assay type: in vivo, BALB/c mice; settings: for BWLmax, maximum body-weight reduction rate / N, mice died/mice used / IR, diminution rate of the tumor / Average tumor weight / day when the maximum body-weight reduction was observed: administered on the 7th day; for IR, diminution rate of the tumor: 21th day; for Average tumor weight: tumor weighed on the 21th day
Procedure: (§2) Meth A cells (murine fibrosarcoma Meth A) were transplanted into BALB/c mice to prepare Meth A tumor-bearing mice. On the 7th day after the transplantation, the drug complex of Example 1 was administered. The weight of the tumor was measured on the 21th day to evaluate the inhibitory activity on the tumor and the toxicity. In the table, * represents significance in Dunnet's test (*** P<0.001, ** P<0.01), the dose is expressed in terms of the weight of anhydrous free base of DX-8951, and IR represents the diminution rate of the tumor.

[4] = tested on: Meth A tumor-bearing mice; experiment: Maximum tolerated dose (MTD) of the drug complex of Example 1 (Example 3); assay type: in vivo, BALB/c mice; settings: for N, mice died/mice used / BWLmax, maximum body-weight reduction rate / day when the maximum body-weight reduction was observed: single administration on the 20th day
Procedure: (§3) Meth A cells were transplanted into BALB/c mice to prepare Meth A tumor-bearing mice. On the 20th day, single administration of the drug complex of Example 1 was carried out. After the administration, measurement of the body weight and observation of toxic death were made with time and the maximum body-weight reduction rate and mortality were calculated, which are shown in Table 2. The dose is expressed in terms of the weight of anhydrous free base of DX-8951.

[5] = Release of the drug compound from the drug complex in Meth A homogenate (Example 2); assay type: in vitro ADME, murine; settings: for released amount of the drug (DX-8951), percentage of the drug in the drug complex used: 37° C., 378 μg/ml, after 20 hours
Procedure: as §1

[6] = tested on: Meth A cells; experiment: Antineoplastic activity of the complexes of Examples 1, 5 and 6 (Example 10); assay type: in vivo, BALB/c mice; settings: singly administered on the 7th day; for IR, diminution rate of the tumor: 21th day; for Average tumor weight: tumor weighed on the 21th day
Procedure: as §2, with “cells” for “cells (murine fibrosarcoma Meth A)”, “complexes shown in Examples 1, 5 and 6 were singly administered, respectively.” for “complex of Example 1 was administered.”, “p<0.001,” for “P<0.001,”, “P<0.01, * P<0.05),” for “P<0.01),”

[7] = tested on: Meth A tumor-bearing mice; experiment: Maximum tolerated dose of the drug complexes of Examples 5, 6 and 7 (Example 9); assay type: in vivo, BALB/c mice; settings: single administration on the 13th day
Procedure: as §3, with “13th” for “20th”, “day,” for “day, single administration of”, “complexes obtained in Examples 5, 6 and 7 were singly administered.” for “complex of Example 1 was carried out.”, “time,” for “time”, “5.” for “2.”
On the basis of the dose in which body weight reduction and death were observed, MTD of each complex were judged as follows.

[8] = Release of the drug compound from the drug complex in buffer (Example 8); assay type: physicochemical; settings: for released amount of the drug (DX-8951), percentage of the drug in the drug complex used: 37° C., 50 μg/ml, after 20 hours
Procedure: (50 μg/ml). […] The released amount of the drug is expressed in percentage of the released amount of the drug to the amount of the drug in the drug complex used.

## Carboxymethyldextran polyalcohol-Gly-Gly-Phe-Gly-NH-p-C6H4—CH2—O—CO-DX-8951 [Example 1]
[1]; Buffer (pH 4.5)
  released amount of the drug (DX-8951), percentage of the drug in the drug complex used: 0.190%
[1]; Buffer (pH 5.5)
  released amount of the drug (DX-8951), percentage of the drug in the drug complex used: 0.178%
[1]; Buffer (pH 6.5)
  released amount of the drug (DX-8951), percentage of the drug in the drug complex used: 0.171%
[1]; Buffer (pH 7.5)
  released amount of the drug (DX-8951), percentage of the drug in the drug complex used: 0.138%
[1]; buffer
  release of the drug in words: hardly released
[2]
  released amount of the drug (DX-8951), percentage of the drug in the drug complex used: 0.186%
[3]; 0.625 mg/kg
  BWLmax, maximum body-weight reduction rate: <0%
  N, mice died/mice used: 0/6
  IR, diminution rate of the tumor: 46%
  Average tumor weight: 1.247 ± 0.280** g
[3]; 1.25 mg/kg
  BWLmax, maximum body-weight reduction rate: 0.3%
  N, mice died/mice used: 0/6
  day when the maximum body-weight reduction was observed: 8 days
  IR, diminution rate of the tumor: 74%
  Average tumor weight: 0.610 ± 0.180*** g
[3]; 5 mg/kg
  BWLmax, maximum body-weight reduction rate: 2.9%
  N, mice died/mice used: 0/6
  day when the maximum body-weight reduction was observed: 13 days
  IR, diminution rate of the tumor: 99%
  Average tumor weight: 0.019 ± 0.004*** g
[3]; 7.5 mg/kg
  BWLmax, maximum body-weight reduction rate: 24.8%
  N, mice died/mice used: 2/6
  day when the maximum body-weight reduction was observed: 15 days
  IR, diminution rate of the tumor: 100%
  Average tumor weight: 0.008 ± 0.002*** g
[3]; 0.625 to 7.5 mg/kg
  effect on tumor weight in words: apparently diminished tumor weight dose-dependently
[3]; […]
  N, mice died/mice used: 0/6
[4]; 0.156 mg/kg
  N, mice died/mice used: 0/2
[4]; 0.156 mg/kg, <0 = no reduction observed
  BWLmax, maximum body-weight reduction rate: <0%
[4]; 0.625 mg/kg
  N, mice died/mice used: 0/2
[4]; 0.625 mg/kg, <0 = no reduction observed
  BWLmax, maximum body-weight reduction rate: <0%
[4]; 10 mg/kg
  toxic death in words: toxic death of all the cases
  BWLmax, maximum body-weight reduction rate: 32.8%
  N, mice died/mice used: 2/2
  day when the maximum body-weight reduction was observed: 26 days
[4]; 30 mg/kg (as DX-8951 anhydrous free base)
  BWLmax, maximum body-weight reduction rate: 17.9%
[4]; 30 mg/kg
  N, mice died/mice used: 2/2
  day when the maximum body-weight reduction was observed: 22 days
[4]; […]
  N, mice died/mice used: 0/2
[5]; Meth A homogenate (pH 4.5)
  released amount of the drug (DX-8951), percentage of the drug in the drug complex used: 37.7%
[5]; Meth A homogenate (pH 5.5)
  released amount of the drug (DX-8951), percentage of the drug in the drug complex used: 38.1%
[5]; Meth A homogenate (pH 6.5)
  released amount of the drug (DX-8951), percentage of the drug in the drug complex used: 4.25%
[5]; tables in Examples 2 and 8
  releasing rate of DX-8951 relative to the drug complex obtained in Example 5: about 113
[5]; weakly acidic homogenate
  release of the drug in words: rapidly released
[6]; 0.625 mg/kg
  BWLmax, maximum body-weight reduction rate: <0%
  N, mice died/mice used: 0/6
  IR, diminution rate of the tumor: 43%
  Average tumor weight: 1.489 ± 0.215** g
[6]; 1.25 mg/kg
  BWLmax, maximum body-weight reduction rate: <0%
  N, mice died/mice used: 0/6
  IR, diminution rate of the tumor: 71%
  Average tumor weight: 0.775 ± 0.207*** g
[6]; 5 mg/kg
  BWLmax, maximum body-weight reduction rate: 4.0%
  N, mice died/mice used: 0/6
  day when the maximum body-weight reduction was observed: 13 days
  IR, diminution rate of the tumor: 100%
  Average tumor weight: 0.004 ± 0.001*** g
[6]; 7.5 mg/kg
  BWLmax, maximum body-weight reduction rate: 26.1%
  N, mice died/mice used: 2/6
  day when the maximum body-weight reduction was observed: 16 days
  IR, diminution rate of the tumor: 100%
  Average tumor weight: 0.005 ± 0.003*** g
[6]; […]
  N, mice died/mice used: 0/6

## Carboxymethyldextran polyalcohol-Gly-Gly-Gly-Phe-NH-p-C6H4—CH2—O—CO-DX-8951 [Example 6]
[6]; 0.15625 mg/kg
  IR, diminution rate of the tumor: 37%
  Average tumor weight: 1.645 ± 0.191* g
[6]; 0.3125 mg/kg
  IR, diminution rate of the tumor: 46%
  Average tumor weight: 1.419 ± 0.163** g
[6]; 0.625 mg/kg
  IR, diminution rate of the tumor: 90%
  Average tumor weight: 0.272 ± 0.066*** g
[6]; 1.25 mg/kg
  IR, diminution rate of the tumor: 99%
  Average tumor weight: 0.016 ± 0.008*** g

## carboxymethyldextran polyalcohol-Gly-Gly-NH-p-C6H4—CH2—O—CO-DX-8951 [Example 7]
[7]; 5 mg/kg
  BWLmax, maximum body-weight reduction rate: 25.4%
  day when the maximum body-weight reduction was observed: 18 days
[7]; 10 mg/kg
  BWLmax, maximum body-weight reduction rate: 13.7%
  day when the maximum body-weight reduction was observed: 16 days
[7]; 20 mg/kg
  BWLmax, maximum body-weight reduction rate: 14.2%
  day when the maximum body-weight reduction was observed: 16 days
[7]; 30 mg/kg
  BWLmax, maximum body-weight reduction rate: 14.6%
  day when the maximum body-weight reduction was observed: 16 days
[7]; dose as DX-8951 anhydrous free base
  MTD: <2.5 mg/kg
[8]; Buffer (pH 4.5)
  released amount of the drug (DX-8951), percentage of the drug in the drug complex used: 0.15%
[8]; Buffer (pH 6.5)
  released amount of the drug (DX-8951), percentage of the drug in the drug complex used: 0.16%
[8]; buffer
  release of the drug in words: hardly released
